# Source: US20170015738A1 (H LUNDBECK A S, published 2017)
# B1: Antibody D1.2 (antibody, mouse IgG2b, kappa, V domains shown)
# VH: QVQLQQSGAELVRPGASVTLSCKASGNTFTDYEIHWVKQTPVHGLEWIGAIDPETGNTAYNQKFKGKARLTADKSSSTAYMELRSLTSEDSAVYYCTRSRGFDYWGQGTTLTVSS
# VL: DVMMTQTPLSLPVSLGDQASISCRSSQSLVHSNGNTYLHWHLQKPGQSPKFLIYKVSNRFSGVPDRFSGSGSGTDFTLKISRVEAEDLGVYFCSQSTHVPFTFGSGTKLEIKR
# notes: Mouse monoclonal; also called mD1.2; mouse D1.2
# B2: Antibody C10-2 (murine) (antibody, mouse IgG1, kappa, V domains shown)
# VH: QVQLQQSDAELVKPGASVKISCKASGYTFTDRTIHWVKQRPEQGLEWIGYIYPGDGSTKYNENFKGKATLTADKSSSTAYMQLNSLTSEDSAVYFCARRGAMDYWGQGTSVTVSS
# VL: DVQMIQSPSSLSASLGDIVTMTCQASQGTSINLNWFQQKPGKAPKLLIYGASNLEDGVPSRFSGSRYGTDFTLTISSLEDEDMATYFCLQHTYLPFTFGSGTKLEIKR
# notes: Mouse monoclonal from hybridoma; also called mC10-2; mouse C10-2
# B3: IPN002 (antibody, V domains shown)
# VH: EVHLVESGGALVKPGGSLKLSCAASGFSFSKYGMSWVRQTPDKRLEWVATISSSGSRTYYPDSVKGQFTISRDNAKNTLYLQMSSLKSEDTAMYYCSISWDGAMDYWGQGTSVTVSS
# VL: DVLMTQTPLSLPVSLGDQASISCKSSQSIVHSNGNTYLEWYLQKPGQSPKLLVYKVSNRFSGVPDRFSGSGSGTDFTLKISRVEAEDLGTYYCFQGSLVPWAFGGGTKLEIK
# How the values were obtained:
# [1] = biological target: T1, tau antigens from human AD brain, S1(p) fraction (human, UniProt P10636 2-758, phosphorylated; sites not listed for this fraction); assay: fluid phase MSD ELISA: inhibition of tau antigen capture
# T1 construct: Brain-derived; isoform mix; also called AD-S1(p); AD s1(p)
# T1 sequence (P10636 other isoform, or with tags, fused parts or gaps limits assumed): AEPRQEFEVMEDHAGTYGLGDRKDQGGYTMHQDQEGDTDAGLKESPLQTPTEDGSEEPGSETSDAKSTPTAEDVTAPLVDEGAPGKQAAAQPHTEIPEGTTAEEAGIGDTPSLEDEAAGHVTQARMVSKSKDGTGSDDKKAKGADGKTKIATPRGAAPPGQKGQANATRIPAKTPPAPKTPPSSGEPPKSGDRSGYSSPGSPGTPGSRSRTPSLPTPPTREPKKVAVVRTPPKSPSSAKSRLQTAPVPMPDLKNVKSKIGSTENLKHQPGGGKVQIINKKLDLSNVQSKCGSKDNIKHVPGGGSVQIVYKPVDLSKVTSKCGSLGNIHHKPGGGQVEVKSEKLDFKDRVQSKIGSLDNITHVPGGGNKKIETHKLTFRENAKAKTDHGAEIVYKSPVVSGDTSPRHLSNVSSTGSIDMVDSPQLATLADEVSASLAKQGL
# Description: B: The samples were incubated on MSD plates coated with AD-P3 (1 μg/ml) for 2 hours followed by wash and detection of captured Tau antigens using sulfo tagged anti-total TauG antibodies.
# [2] = biological target: T2, pathological hyperphosphorylated tau from human Alzheimer's disease brain, sarkosyl-insoluble P3 fraction (human, UniProt P10636 2-758, hyperphosphorylated; phosphoserine at 396 (other sites not listed)); assay: MSD ELISA on immobilised P3 tau; ratio of binding to AD over healthy control at saturation
# T2 construct: Brain-derived mixture of tau isoforms (bands at 54, 64, 69 and 74 kDa); also called AD-P3; AD P3
# T2 sequence (P10636 other isoform, or with tags, fused parts or gaps limits assumed): as above
Binder,IC50 [1],AD/ctrl [2]
B1,503 nM,–
B2,11 nM,–
B3,–,3 fold
